Source: patent US20180066036A1 (APOGENIX, published 2018)

B1: PROTEIN-X2 (ligand)
chain: QIAAHVISEASSKTTSVLQWAEKGYYTMSNNLVTLENGKQLTVKRQGLYYIYAQVTFCSNREASSQAPFIASLCLKSPGRFERILLRAANTHSSAKPCGQQSIHLGGVFELQPGASVFVNVTDPSQVSHGTGFTSFGLLKLGSSSSSSAWSHPQFEK
B2: PROTEIN X (ligand)
chain: QIAAHVISEASSKTTSVLQWAEKGYYTMSNNLVTLENGKQLTVKRQGLYYIYAQVTFCSNREASSQAPFIASLCLKSPGRFERILLRAANTHSSAKPCGQQSIHLGGVFELQPGASVFVNVTDPSQVSHGTGFTSFGLLKLGSGSSGSSGSSGSGYIEDAPSDGKFYVRKDGAWVELPTASGPSSSSSSAWSHPQFEK
notes: Three identical polypeptides; also called trivalent control protein; homotrimeric CD40L-RBD stabilized by RB69 trimerisation scaffold

Assays:
[1] = molecular target: CD40 (native receptor on the surface of human cells) (human, UniProt P25942 21-277); experiment: cell-based or functional assay
Sequence of CD40 (native receptor on the surface of human cells) (P25942 21-277): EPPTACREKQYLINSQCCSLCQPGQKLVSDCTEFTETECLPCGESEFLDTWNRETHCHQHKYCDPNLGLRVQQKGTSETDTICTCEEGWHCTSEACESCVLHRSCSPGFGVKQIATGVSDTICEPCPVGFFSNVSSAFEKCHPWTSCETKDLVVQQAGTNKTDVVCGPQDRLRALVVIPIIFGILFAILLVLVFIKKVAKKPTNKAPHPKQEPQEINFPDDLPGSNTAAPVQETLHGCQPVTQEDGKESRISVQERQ

[2] = molecular target: T1, human CD40-Fc (Enzo, catalogue number ALX-522-016-C050) (human, UniProt P25942 21-193); experiment: QCM (Attana A100), human CD40-Fc immobilized, analyte at 1, 5 and 10 µg/ml
T1 construct: Bought reagent; also called immobilized CD40-receptor; not shown: Fc part of the bought fusion protein, not described
T1 sequence (P25942 21-193 limits assumed): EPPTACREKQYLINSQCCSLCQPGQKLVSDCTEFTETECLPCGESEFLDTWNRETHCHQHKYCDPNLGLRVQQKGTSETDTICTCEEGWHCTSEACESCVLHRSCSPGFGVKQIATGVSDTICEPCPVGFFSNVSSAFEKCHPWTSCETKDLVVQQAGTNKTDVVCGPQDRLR
Experimental: The equilibrium binding constants (KD) of trivalent constructs of CD40L (e.g.: PROTEIN X) and hexavalent constructs of CD40L (e.g. PROTEIN A, PROTEIN B, and PROTEIN C) to CD40 was calculated based on kinetic binding data (kₒₙ and koff) determined with an automated biosensor system (Attana A100). The A100 allows to investigate molecular interactions in real-time based on the Quartz Crystal Microbalance (QCM) technique.
For this purpose human CD40-Fc, purchased from Enzo (catalogue number: ALX-522-016-C050), was immobilized on the surface of a carboxyl-activated QCM-chip. Trimeric and hexameric CD40L-constructs were used as soluble analyte at concentrations of 1, 5, and 10 μg/ml. Binding (kₒₙ) and dissociation (koff) was analyzed.

Binder | CD86 (MFI), monocytes 3 d, 10 ng/mL [1] | CD86 (MFI), monocytes 3 d, 100 ng/mL [1] | CD86 (MFI), monocytes 3 d, 1000 ng/mL [1] | HLA-DR,DP (MFI), monocytes 3 d, 10 ng/mL [1] | HLA-DR,DP (MFI), monocytes 3 d, 100 ng/mL [1] | HLA-DR,DP (MFI), monocytes 3 d, 1000 ng/mL [1] | Percentage of macrophages that are CD86+, 3 d, 10 ng/mL [1] | Percentage of macrophages that are CD86+, 3 d, 100 ng/mL [1] | Percentage of macrophages that are CD86+, 3 d, 1000 ng/mL [1] | Percentage of macrophages that are CD206+ and CD163+ (M2-like), 3 d, 10 ng/mL [1] | Percentage of macrophages that are CD206+ and CD163+ (M2-like), 3 d, 100 ng/mL [1] | Percentage of macrophages that are CD206+ and CD163+ (M2-like), 3 d, 1000 ng/mL [1] | Percentage of macrophages that are HLA-DR,DP+, 3 d, 10 ng/mL [1] | Percentage of macrophages that are HLA-DR,DP+, 3 d, 100 ng/mL [1] | Percentage of macrophages that are HLA-DR,DP+, 3 d, 1000 ng/mL [1] | Kd [2]
B1 | 11 MFI | 12 MFI | 11 MFI | 26 MFI | 29 MFI | 22 MFI | 7% | 7% | 8% | 21% | 23% | 21% | 5% | 7% | 2% | –
B2 | 11 MFI | 11 MFI | 12 MFI | 26 MFI | 26 MFI | 31 MFI | 7% | 8% | 16% | 17% | 21% | 10% | 5% | 6% | 12% | 9.05 nM
